Measured values from patent publication US20050170468A1 (published 2005).

What was measured:
Assay in all cases: radiolabeled ligand binding assay on stably transfected BHK cells
[1] = biological target: T1, IL-20RB (full-length, on cells, without transfected IL-20RA) (human, UniProt Q6UXL0 30-311)
T1 construct: also called DIRS1; pDIRS1
T1 sequence: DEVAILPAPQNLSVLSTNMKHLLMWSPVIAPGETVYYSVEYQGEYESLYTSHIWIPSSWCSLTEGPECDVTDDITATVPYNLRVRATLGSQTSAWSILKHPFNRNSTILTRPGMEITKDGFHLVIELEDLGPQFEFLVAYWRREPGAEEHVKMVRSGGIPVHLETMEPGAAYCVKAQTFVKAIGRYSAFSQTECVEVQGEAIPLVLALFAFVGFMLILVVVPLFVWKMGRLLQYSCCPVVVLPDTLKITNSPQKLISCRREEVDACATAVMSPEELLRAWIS
Experimental: (§1) The specificity and affinity of IL-20 for its receptor was determined using BHK cells stably transfected with IL-20RA, IL-20RB or both receptor subunits. […] Binding of ¹²⁵I-labeled IL-20 was eliminated in the presence of 100-fold excess of unlabeled IL-20 but not with 100-fold excess of the unrelated cytokine, IL-21.

[2] = biological target: T2, IL-20RA (full-length, on cells, without transfected IL-20RB) (human, UniProt Q9UHF4 30-553)
T2 construct: Also used as the target of the anti-IL-20RA antibody on human lung tissue, the positive control 'known with IL-20RA expression'; also called ZcytoR7; BaF3/KZ134/IL-20RA only cells
T2 sequence: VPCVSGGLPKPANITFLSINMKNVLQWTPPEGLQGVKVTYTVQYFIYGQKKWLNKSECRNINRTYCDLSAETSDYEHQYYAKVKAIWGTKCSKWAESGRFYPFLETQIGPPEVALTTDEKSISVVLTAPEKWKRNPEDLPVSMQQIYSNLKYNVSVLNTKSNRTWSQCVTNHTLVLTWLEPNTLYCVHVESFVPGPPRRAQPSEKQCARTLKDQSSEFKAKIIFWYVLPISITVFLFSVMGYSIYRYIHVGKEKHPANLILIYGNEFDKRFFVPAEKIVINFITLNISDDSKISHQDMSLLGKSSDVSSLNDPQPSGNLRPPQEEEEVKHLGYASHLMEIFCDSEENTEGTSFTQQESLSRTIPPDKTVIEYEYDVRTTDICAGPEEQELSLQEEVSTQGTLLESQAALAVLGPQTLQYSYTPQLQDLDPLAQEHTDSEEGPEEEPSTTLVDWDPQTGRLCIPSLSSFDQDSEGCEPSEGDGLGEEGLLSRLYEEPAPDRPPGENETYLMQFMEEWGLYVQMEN
Experimental: as §1

[3] = biological target: T3, IL-20RA/IL-20RB heterodimeric receptor (on cells) (human, UniProt Q9UHF4 30-553; Q6UXL0 30-311)
T3 construct: Both subunits are on the same cell (COS, BHK or BaF3 transfectants, or HaCaT endogenously); also called IL-20 receptor; ZcytoR7/pDIRS1
T3 sequence 1: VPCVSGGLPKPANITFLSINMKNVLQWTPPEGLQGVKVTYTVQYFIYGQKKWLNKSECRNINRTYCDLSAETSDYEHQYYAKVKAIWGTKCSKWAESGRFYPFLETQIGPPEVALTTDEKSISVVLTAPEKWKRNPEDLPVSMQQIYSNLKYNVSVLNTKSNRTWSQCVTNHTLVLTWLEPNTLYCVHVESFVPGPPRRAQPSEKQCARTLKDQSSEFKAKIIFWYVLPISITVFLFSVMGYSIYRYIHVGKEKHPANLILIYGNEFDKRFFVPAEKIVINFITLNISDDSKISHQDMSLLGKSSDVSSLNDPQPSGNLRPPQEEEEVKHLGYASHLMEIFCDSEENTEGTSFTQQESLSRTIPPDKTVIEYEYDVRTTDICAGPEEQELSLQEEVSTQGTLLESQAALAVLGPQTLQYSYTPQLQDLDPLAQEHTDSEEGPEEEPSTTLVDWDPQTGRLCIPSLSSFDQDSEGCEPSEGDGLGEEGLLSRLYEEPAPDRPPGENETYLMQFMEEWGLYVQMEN
T3 sequence 2: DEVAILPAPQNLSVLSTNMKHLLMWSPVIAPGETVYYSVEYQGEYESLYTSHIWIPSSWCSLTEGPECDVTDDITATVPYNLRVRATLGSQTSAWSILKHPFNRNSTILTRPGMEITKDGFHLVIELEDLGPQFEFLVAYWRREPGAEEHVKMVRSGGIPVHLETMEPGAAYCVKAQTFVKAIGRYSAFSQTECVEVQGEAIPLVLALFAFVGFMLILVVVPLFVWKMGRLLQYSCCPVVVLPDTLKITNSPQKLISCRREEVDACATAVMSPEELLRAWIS
Experimental: as §1

binding result [1]: no binding | binding result [2]: no binding | Kd [3]: ~1.5 nM
B1: IL-20 (ligand)
chain: LKTLNLGSCVIATNLQEIRNGFSDIRGSVQAKDGNIDIRILRRTESLQDTKPANRCCLLRHLLRLYLDRVFKNYQTPDHYTLRKISSLANSFLTIKKDLRLCHAHMTCHCGEEAMKKYSQILSHFEKLEPQAAVVKALGELDILLQWMEETE
modifications: biotin label in Example 6; 125I label in Example 10
notes: also called Zcyto10; biotinylated IL-20 protein
